Laboratory results reported in patent publication CN115466329A (GUANGDONG FAPON PHARMACEUTICAL CO LTD, dated 2022).

Experiments:
[1] = biological target: CD28 (ACRO) coated on the ELISA plate (UniProt P10747 19-152); experiment: ELISA, antigen coated at 1μg/ml
[2] = biological target: T1, CTLA-4 (ACRO) coated on the ELISA plate (UniProt P16410 37-162, limits assumed); experiment: ELISA, antigen coated at 1μg/ml
T1 sequence (looked up): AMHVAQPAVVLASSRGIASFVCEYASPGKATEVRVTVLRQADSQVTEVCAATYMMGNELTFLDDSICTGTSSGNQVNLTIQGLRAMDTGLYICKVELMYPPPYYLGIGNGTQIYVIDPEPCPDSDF

[3] = biological target: T2, ICOS (ACRO) coated on the ELISA plate (UniProt Q9Y6W8 21-140); experiment: ELISA, antigen coated at 1μg/ml
T2 sequence (looked up): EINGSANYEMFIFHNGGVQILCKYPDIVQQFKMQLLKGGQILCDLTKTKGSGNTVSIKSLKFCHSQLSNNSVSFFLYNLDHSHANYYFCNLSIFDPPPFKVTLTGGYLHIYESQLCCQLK

[4] = biological target: T3, 小鼠PD1 expressed on CHO cells (CHO-mousePD1) (mouse, UniProt Q02242 25-288); experiment: flow cytometry on CHO-mousePD1 cells
T3 construct: whole, on cells; also called CHO-mPD1
T3 sequence (looked up): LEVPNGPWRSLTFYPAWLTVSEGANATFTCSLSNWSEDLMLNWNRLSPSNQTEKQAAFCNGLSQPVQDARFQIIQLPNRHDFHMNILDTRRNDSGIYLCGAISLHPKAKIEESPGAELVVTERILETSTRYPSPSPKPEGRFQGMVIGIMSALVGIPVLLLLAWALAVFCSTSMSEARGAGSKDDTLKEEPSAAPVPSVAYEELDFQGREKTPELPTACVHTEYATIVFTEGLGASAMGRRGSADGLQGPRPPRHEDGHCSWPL

PD-1-his(ACRO)重组蛋白 = biological target: T4, PD-1-his(ACRO)重组蛋白 (UniProt Q15116 25-167); experiment: BLI (ForteBio Octet QKe), PD-1-his loaded on HIS1K sensor, antibody in solution
T4 construct: Bought (ACRO); not shown: his tag
T4 sequence (Q15116 25-167 limits assumed): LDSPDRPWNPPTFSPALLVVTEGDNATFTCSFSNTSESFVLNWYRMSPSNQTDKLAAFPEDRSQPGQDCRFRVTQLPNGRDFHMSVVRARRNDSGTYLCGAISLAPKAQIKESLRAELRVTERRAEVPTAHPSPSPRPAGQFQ

Sequence of CD28 (ACRO) coated on the ELISA plate (P10747 19-152 limits assumed): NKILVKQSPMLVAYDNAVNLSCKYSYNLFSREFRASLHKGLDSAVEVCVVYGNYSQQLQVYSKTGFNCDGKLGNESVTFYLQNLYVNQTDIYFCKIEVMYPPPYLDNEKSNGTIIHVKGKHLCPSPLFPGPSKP

B1: 抗PD-1鼠单抗PD-1-76-C2 (antibody, V domains shown)
VH: QIQLVQSGPELKKPGETVKISCKASGYTFTNYGMNWVKQAPGKGLKWMGWINTHTGEPTYADDFKGRFAFSLETSASTAYLQIKNLKNEDVATYFCTKEGEGIGFAYWGQGTLVTVSA
VL: DVLMTQTPLSLPVSLGDQASISCRSSQSIVYSNGKTYLEWYLQKPGQSPKLLIYKVSNRFSGVPDRFSGSGSGTDFTLKISRVEAEDLGVYYCFQGSHVPNTFGGGTKLEIKR
notes: Mouse monoclonal antibody from a hybridoma; an mIgG1 isotype control was used; also called PD-76-C2; 抗人PD-1鼠单抗
[1]
  binding result: no binding (tested: 10μg/ml)
[2]
  binding result: no binding (tested: 10μg/ml)
[3]
  binding result: no binding (tested: 10μg/ml)
[4]
  binding result: no binding (tested: 初始浓度为10μg/ml)
PD-1-his(ACRO)重组蛋白
  Kd: < 1 pM
  koff: < 1e-07 s⁻¹
  kon: 771000 M⁻¹ s⁻¹
